The target in the assay is strep-HA3/B (Clostridium botulinum serotype B strain Okra). The assay is described as follows: SEC; […], PBS pH 6.0, 0.75 mL/min, […]. For orientation: In gel filtration, larger molecules generally elute earlier.

The term stoichiometry N denotes a count of units in the complex or per binding partner.

For the substance strep-HA3/B (domain or fragment), the stoichiometry N worked out at 3.

The record behind these values is article PMC12473987.
